Data from the supplement of paper PMC11246515.
± gives the standard deviation of the averaged measurements.

Experiment: total protein half-life in vivo (active degradation + dilution); higher = more stable protein
[1] = E. coli NCM3722 delta-clpP delta-lon delta-hslV, growth: N-lim chemostat, doubling time 6 h
[2] = E. coli NCM3722 delta-clpP, growth: N-lim chemostat, doubling time 6 h
[3] = E. coli NCM3722 delta-hslV, growth: N-lim chemostat, doubling time 6 h
[4] = E. coli NCM3722 delta-lon, growth: N-lim chemostat, doubling time 6 h
[5] = E. coli NCM3722 delta-smpB, growth: N-lim chemostat, doubling time 6 h
[6] = wild type E. coli NCM3722, growth: C-lim chemostat, doubling time 3 h
[7] = wild type E. coli NCM3722, growth: C-lim chemostat, doubling time 6 h
[8] = wild type E. coli NCM3722, growth: C-lim chemostat, doubling time 12 h
[9] = wild type E. coli NCM3722, growth: N-lim chemostat, doubling time 6 h
[10] = wild type E. coli NCM3722, growth: N-lim chemostat, doubling time 12 h
[11] = wild type E. coli NCM3722, growth: P-lim chemostat, doubling time 6 h
[12] = wild type E. coli NCM3722, growth: P-lim chemostat, doubling time 12 h

Sequence	total protein half-life in vivo [1]	total protein half-life in vivo [2]	total protein half-life in vivo [3]	total protein half-life in vivo [4]	total protein half-life in vivo [5]	total protein half-life in vivo [6]	total protein half-life in vivo [7]	total protein half-life in vivo [8]	total protein half-life in vivo [9]	total protein half-life in vivo [10]	total protein half-life in vivo [11]	total protein half-life in vivo [12]
MSIQNEMPGYNEMNQYLNQQGTGLTPAEMHGLISGMICGGNDDSSWLPLLHDLTNEGMAFGHELAQALRKMHSATSDALQDDGFLFQLYLPDGDDVSVFDRADALAGWVNHFLLGLGVTQPKLDKVTGETGEAIDDLRNIAQLGYDEDEDQEELEMSLEEIIEYVRVAALLCHDTFTHPQPTAPEVQKPTLH [P0A8C4]	> 8 h	4.56 ± 0.28 h	3.63 ± 0.19 h	3.96 ± 0.8 h	3.76 ± 0.7 h	2.648 ± 0.026 h	5.18 ± 0.36 h	8.97 ± 0.18 h	3.86 ± 0.19 h	5.64 ± 1 h	5.02 ± 1.2 h	9.3 h
MSIRFARKADCAAIAEIYNHAVLYTAAIWNDQTVDADNRIAWFEARTLAGYPVLVSEENGVVTGYASFGDWRSFDGFRHTVEHSVYVHPDHQGKGLGRKLLSRLIDEARDCGKHVMVAGIESQNQASLHLHQSLGFVVTAQMPQVGTKFGRWLDLTFMQLQLDERTEPDAIG	5.23 ± 0.39 h	4.6 ± 0.25 h	4.9 ± 0.08 h	5.17 ± 0.18 h	4.66 ± 0.33 h	2.77 ± 0.072 h	5.77 ± 0.34 h	10.14 ± 0.042 h	4.93 ± 0.44 h	9.49 h	5.912 ± 0.025 h	12 ± 0.29 h
MSITLSDSAAARVNTFLANRGKGFGLRLGVRTSGCSGMAYVLEFVDEPTPEDIVFEDKGVKVVVDGKSLQFLDGTQLDFVKEGLNEGFKFTNPNVKDECGCGESFHV [P0AAC8]	3.72 ± 0.52 h	2.47 ± 1.5 h	0.964 ± 0.11 h	2.06 ± 0.1 h	0.889 ± 0.077 h	1.2 ± 0.086 h	1.62 ± 0.07 h	2.08 ± 0.36 h	1.14 ± 0.11 h	1.26 ± 0.022 h	1.36 ± 0.36 h	2.42 ± 0.75 h
MSKAGKITAAISGAFLLLIVVAIILIATFDWNRLKPTINQKVSAELNRPFAIRGDLGVVWERQKQETGWRSWVPWPHVHAEDIILGNPPDIPEVTMVHLPRVEATLAPLALLTKTVWLPWIKLEKPDARLIRLSEKNNNWTFNLANDDNKDANAKPSAWSFRLDNILFDQGRIAIDDKVSKADLEIFVDPLGKPLPFSEVTGSKGKADKEKVGDYVFGLKAQGRYNGEPLTGTGKIGGMLALRGEGTPFPVQADFRSGNTRVAFDGVVNDPMKMGGVDLRLKFSGDSLGDLYELTGVLLPDTPPFETDGRLVAKIDTEKSSVFDYRGFNGRIGDSDIHGSLVYTTGKPRPKLEGDVESRQLRLADLGPLIGVDSGKGAEKSKRSEQKKGEKSVQPAGKVLPYDRFETDKWDVMDADVRFKGRRIEHGSSLPISDLSTHIILKNADLRLQPLKFGMAGGSIAANIHLEGDKKPMQGRADIQARRLKLKELMPDVELMQKTLGEMNGDAELRGSGNSVAALLGNSNGNLKLLMNDGLVSRNLMEIVGLNVGNYIVGAIFGDDEVRVNCAAANLNIANGVARPQIFAFDTENALINVTGTASFASEQLDLTIDPESKGIRIITLRSPLYVRGTFKNPQAGVKAGPLIARGAVAAALATLVTPAAALLALISPSEGEANQCRTILSQMKK	6.24 ± 0.57 h	5.9 ± 0.17 h	6.13 ± 0.039 h	6.42 ± 0.4 h	5.438 ± 0.026 h	3.09 ± 0.22 h	5.72 ± 0.19 h	10.9 ± 1.2 h	5.57 ± 0.16 h	10.9 ± 0.42 h	5.49 ± 0.3 h	9.41 ± 0.73 h
MSKFLDRFRYFKQKGETFADGHGQLLNTNRDWEDGYRQRWQHDKIVRSTHGVNCTGSCSWKIYVKNGLVTWETQQTDYPRTRPDLPNHEPRGCPRGASYSWYLYSANRLKYPMMRKRLMKMWREAKALHSDPVEAWASIIEDADKAKSFKQARGRGGFVRSSWQEVNELIAASNVYTIKNYGPDRVAGFSPIPAMSMVSYASGARYLSLIGGTCLSFYDWYCDLPPASPQTWGEQTDVPESADWYNSSYIIAWGSNVPQTRTPDAHFFTEVRYKGTKTVAVTPDYAEIAKLCDLWLAPKQGTDAAMALAMGHVMLREFHLDNPSQYFTDYVRRYTDMPMLVMLEERDGYYAAGRMLRAADLVDALGQENNPEWKTVAFNTNGEMVAPNGSIGFRWGEKGKWNLEQRDGKTGEETELQLSLLGSQDEIAEVGFPYFGGDGTEHFNKVELENVLLHKLPVKRLQLADGSTALVTTVYDLTLANYGLERGLNDVNCATSYDDVKAYTPAWAEQITGVSRSQIIRIAREFADNADKTHGRSMIIVGAGLNHWYHLDMNYRGLINMLIFCGCVGQSGGGWAHYVGQEKLRPQTGWQPLAFALDWQRPARHMNSTSYFYNHSSQWRYETVTAEELLSPMADKSRYTGHLIDFNVRAERMGWLPSAPQLGTNPLTIAGEAEKAGMNPVDYTVKSLKEGSIRFAAEQPENGKNHPRNLFIWRSNLLGSSGKGHEFMLKYLLGTEHGIQGKDLGQQGGVKPEEVDWQDNGLEGKLDLVVTLDFRLSSTCLYSDIILPTATWYEKDDMNTSDMHPFIHPLSAAVDPAWEAKSDWEIYKAIAKKFSEVCVGHLGKETDIVTLPIQHDSAAELAQPLDVKDWKKGECDLIPGKTAPHIMVVERDYPATYERFTSIGPLMEKIGNGGKGIAWNTQSEMDLLRKLNYTKAEGPAKGQPMLNTAIDAAEMILTLAPETNGQVAVKAWAALSEFTGRDHTHLALNKEDEKIRFRDIQAQPRKIISSPTWSGLEDEHVSYNAGYTNVHELIPWRTLSGRQQLYQDHQWMRDFGESLLVYRPPIDTRSVKEVIGQKSNGNQEKALNFLTPHQKWGIHSTYSDNLLMLTLGRGGPVVWLSEADAKDLGIADNDWIEVFNSNGALTARAVVSQRVPAGMTMMYHAQERIVNLPGSEITQQRGGIHNSVTRITPKPTHMIGGYAHLAYGFNYYGTVGSNRDEFVVVRKMKNIDWLDGEGNDQVQESVK	6.33 ± 1.8 h		5.88 ± 0.73 h	6.6 ± 0.84 h	4.97 ± 0.39 h	2.41 h	6.81 h	13.2 h	6.23 ± 0.94 h		5.64 ± 0.29 h	12.1 ± 1.3 h
MSKIKGNVKWFNESKGFGFITPEDGSKDVFVHFSAIQTNGFKTLAEGQRVEFEITNGAKGPSAANVIAL [P0A972]	3.54 ± 0.22 h	2.27 ± 0.041 h	1.7 ± 0.036 h	3.44 ± 0.12 h	1.96 ± 0.28 h	2.156 ± 0.014 h	2.37 ± 0.17 h	2.62 ± 0.54 h	1.8 ± 0.15 h	2.23 ± 0.19 h	1.945 ± 0.018 h	3.16 ± 0.3 h
